# Measured values published in EP4324846A1 (Eberhard Karls Universität Tübingen, Medizinische Fakultät, dated 2024).
# How the values were obtained:
# [1] = target: T1, EGF (Peprotech AF-100-15) (UniProt P01133 971-1023); test: SPR, EGF immobilized; reference d3-wt
# T1 construct: Immobilized on a CM5 chip by amine coupling; Also added at 400 pM in the A431 proliferation assay; also called epidermal growth factor
# [2] = target: T1, EGF (Peprotech AF-100-15); test: SPR (Biacore X100), EGF immobilized on CM5, multi-cycle kinetics
# [3] = target: T2, d3-wt (human EGFR domain 3) (human, UniProt P00533 337-504, limits assumed); test: SPR (Biacore X100), HB-EGF immobilized on CM5, multi-cycle kinetics
# T2 construct: Expressed in E. coli from pET-28a(+) and purified on a HisTrap column; Monomeric fraction used; also called wild type d3; wild-type d3 domain
# T1 sequence (P01133 971-1023 limits assumed): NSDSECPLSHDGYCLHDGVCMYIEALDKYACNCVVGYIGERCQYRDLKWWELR
fold tighter binding than d3-wt [1] [fold],Kd [2] [nM],Kd [3] [nM],Binder
5,10,,"dd3-1 (designed binder, Expressed in E. coli from pET-28a(+) and purified on a HisTrap column; also called design) ANGIGIGEFKDSLSIWAWNIKHFKNARSISGDLHILPVAFRGDSFTHTPPLEPKELEILKTVKEITGYLLVQAWPENRTDLHAFENLEIIRGRTKQHGQFSLAVVSLNVTSLGLRSLKEISDGDVIMSGNKNLKMANEMNWKKMFGTSGQKTKIISNRGE"
,,263,"HB-EGF (R&D Systems 259-HE-050/CF) (ligand, UniProt Q99075 63-148, looked up, Immobilized on a CM5 chip by amine coupling) DLQEADLDLLRVTLSSKPQALATPNKEEHGKRKKKGKGLGKKRDPCLRKYKDFCIHGECKYVKELRAPSCICHPGYHGERCHGLSL"
